Patent US4397951A, “Elastase-containing composition permitting elastase to be absorbed in increased amount” (Eisai Co., Ltd., priority 1981, dated 1983)
Read-outs that look alike come from different tables or passages of the source.

Assays:
[1] = intraintestinal, rats, cited from earlier work
elastin = experiment: Elastase activity (decomposition of insoluble elastin); format: biochemical; settings: pH 8.8, 37°C, 30 min, elastin substrate
Procedure: In the present invention, the compounding ratio of pure elastase to sucrose fatty acid ester is specified in terms of weight ratio for convenience' sake. […] That is, at present available pure elastase has an activity of 340 elastase activity units (abbreviated as 340 EL. U) per mg measured by the method to be described hereinafter, and therefore the composition of the present invention is also defined as an elastase-containing composition containing 0.5 to 50 mg of sucrose fatty acid ester per 340 EL. U of elastase. More specifically, the composition of the present invention is an elastase-containing composition which contains 0.5 to 50 mg of sucrose fatty acid ester per 340 EL. U (measured by the measuring method described hereinafter) of elastase.
An elastase-containing sample is accurately weighed, and dissolved in a diluted Palitzsch buffer solution to make a 250 ml elastase enzyme solution. 1 ml of the elastase enzyme solution is added to 4 ml of a substrate solution, and incubation is conducted for 30 minutes at 37°±0.1° C. with shaking at 100 strokes/min. […]
The amount of soluble elastin produced per minute as a result of decomposition of insoluble elastin under the above-described measuring conditions is determined as an amount of tyrosine (μg) by which EL. […]

[2] = statement; cited from earlier work
[3] = background statement; cited from earlier work
[4] = Serum elastase level, Tmax, Cmax, AUC after intraduodenal aqueous solution (Effect Example 3); format: in vivo, beagles; settings: intraduodenal 5 ml solution, 55.2 mg elastase (326 EL. U/mg)
Procedure: An aqueous control solution was prepared by adding 55.2 mg of elastase (326 EL. U/mg) alone to 5 ml of water.
Four beagles (weighing 10.5-14.0 kg) were divided into 2 aliquot groups, each being 2 subjects. […] The subjects were fasted overnight, and the abdomen was cut open along the median line under anesthesia in the following morning. Then, 5 ml of the respective sample and control solutions were introduced into duodendum using injection tube, followed by immediate suturing. 3 ml of the blood were respectively taken prior to the administration of the solutions, and at the elapsed times of 1, 2, 4, 6, 8, 10, 12 and 24 hours after the administration of the solutions. About 1 ml of serum was respectively separated by means of centrifuge.
Serum elastase levels were measured in accordance with "Enzyme-immunological method", as described in the effect example 1.

## ^131 I-elastase: 131I-labelled elastase dissolved in a physiological saline solution
[1]; 1 mg in physiological saline
  amount absorbed (blood vessel route plus lymphatic vessel route): 0.15%
[1]; 5 mg in physiological saline
  amount absorbed (blood vessel route plus lymphatic vessel route): 0.05%

## elastase: decomposing enzyme for elastin, extracted from porcine pancreas; polypeptide having a molecular weight of 25,900
elastin
  elastase activity: 340 EL. U per mg
[2]
  stability to gastric acid: unstable to gastric acid
[3]
  effect on elasticity of blood vessel: increase elasticity of blood vessel
  effect on serum lipid level: normalize serum lipid level

## Control Solution: 55.2 mg of elastase (326 EL. U/mg) alone in 5 ml of water
[4]
  AUC0-24hr: 125.84 ng·h/mL
[4]; 1440 min
  AUC0-24hr: 307.18 ng·h/mL
